Legend:
Cys45 = assay: UV-vis; details: 10 °C; poly-buffer: 10 mM sodium acetate, 10 mM sodium phosphate, 10 mM sodium borate, 10 mM sodium citrate, pH 9.4, titrated with 100 mM HCl; Reduced protein (20 µM), referenced to CHP-oxidised protein; folded.
Cys42 = assay: UV-vis; details: 10 °C; poly-buffer: 10 mM sodium acetate, 10 mM sodium phosphate, 10 mM sodium borate, 10 mM sodium citrate, pH 9.4, titrated with 100 mM HCl; Reduced protein (20 µM), referenced to CHP-oxidised protein; folded.

With “Alkyl hydroperoxide reductase CgAhp (NCgl0877), AhpD-like disulfide oxidoreductase (Corynebacterium glutamicum (strain RES167, derivative of ATCC 13032))” as the substance, how does the pKa (Cys45) read?
The pKa was 8.39.

What about the pKa (Cys42) of the same substance?
Its pKa is “lower than 6”.

— publication PMC10460364
